According to patent US20250257126A1 (CAMBRIDGE ENTERPRISE, published 2025):

Key:
[1] = target: T1, human LGR4 transgene (human, UniProt Q9BXB1 25-951); test: western blot of lysates of HEK293T cells expressing the LGR transgenes
T1 construct: whole, on cells; Overexpressed in HEK293T cells with N-terminal HA tag, V2 receptor tail and eGFP; also tested as lysate; also called hLGR4; LGR4-eGFP

[2] = target: T2, human LGR6 transgene (human, UniProt Q9HBX8 25-967); test: as above
T2 construct: whole, on cells; Overexpressed in HEK293T cells with N-terminal HA tag, V2 receptor tail and eGFP; also tested as lysate; also called hLGR6; LGR6-eGFP
T2 sequence (looked up): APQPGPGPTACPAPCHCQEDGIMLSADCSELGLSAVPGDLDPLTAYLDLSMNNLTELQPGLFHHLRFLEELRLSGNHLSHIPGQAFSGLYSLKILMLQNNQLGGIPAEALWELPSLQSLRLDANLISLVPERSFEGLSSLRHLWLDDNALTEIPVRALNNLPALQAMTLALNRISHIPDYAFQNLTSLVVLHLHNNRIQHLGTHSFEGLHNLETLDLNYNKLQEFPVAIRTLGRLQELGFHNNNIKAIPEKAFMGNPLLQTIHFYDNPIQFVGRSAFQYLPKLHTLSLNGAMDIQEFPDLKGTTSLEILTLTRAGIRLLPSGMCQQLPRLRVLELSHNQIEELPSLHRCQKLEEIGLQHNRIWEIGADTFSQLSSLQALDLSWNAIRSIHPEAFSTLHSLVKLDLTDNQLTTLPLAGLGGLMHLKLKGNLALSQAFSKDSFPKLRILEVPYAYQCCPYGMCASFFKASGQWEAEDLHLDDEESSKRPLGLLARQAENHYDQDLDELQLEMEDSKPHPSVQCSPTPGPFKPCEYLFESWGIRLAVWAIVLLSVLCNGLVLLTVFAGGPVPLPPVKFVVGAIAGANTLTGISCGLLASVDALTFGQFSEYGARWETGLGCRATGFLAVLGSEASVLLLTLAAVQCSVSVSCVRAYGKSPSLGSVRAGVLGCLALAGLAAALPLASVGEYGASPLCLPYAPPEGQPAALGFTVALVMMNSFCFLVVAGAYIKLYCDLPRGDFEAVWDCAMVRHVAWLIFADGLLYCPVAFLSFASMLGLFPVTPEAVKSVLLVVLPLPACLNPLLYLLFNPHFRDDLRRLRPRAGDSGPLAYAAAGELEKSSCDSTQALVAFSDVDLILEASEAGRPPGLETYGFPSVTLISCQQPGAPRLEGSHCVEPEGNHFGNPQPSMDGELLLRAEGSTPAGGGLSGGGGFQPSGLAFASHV

[3] = target: T3, murine LGR4 transgene (mouse, UniProt A2ARI4 25-951); test: as above
T3 construct: whole, on cells; Overexpressed in HEK293T cells with N-terminal HA tag, V2 receptor tail and eGFP; also tested as lysate; also called mLGR4

[4] = target: T4, murine LGR6 transgene (mouse, UniProt Q3UVD5 23-967); test: as above
T4 construct: whole, on cells; also called mLGR6
T4 sequence (looked up): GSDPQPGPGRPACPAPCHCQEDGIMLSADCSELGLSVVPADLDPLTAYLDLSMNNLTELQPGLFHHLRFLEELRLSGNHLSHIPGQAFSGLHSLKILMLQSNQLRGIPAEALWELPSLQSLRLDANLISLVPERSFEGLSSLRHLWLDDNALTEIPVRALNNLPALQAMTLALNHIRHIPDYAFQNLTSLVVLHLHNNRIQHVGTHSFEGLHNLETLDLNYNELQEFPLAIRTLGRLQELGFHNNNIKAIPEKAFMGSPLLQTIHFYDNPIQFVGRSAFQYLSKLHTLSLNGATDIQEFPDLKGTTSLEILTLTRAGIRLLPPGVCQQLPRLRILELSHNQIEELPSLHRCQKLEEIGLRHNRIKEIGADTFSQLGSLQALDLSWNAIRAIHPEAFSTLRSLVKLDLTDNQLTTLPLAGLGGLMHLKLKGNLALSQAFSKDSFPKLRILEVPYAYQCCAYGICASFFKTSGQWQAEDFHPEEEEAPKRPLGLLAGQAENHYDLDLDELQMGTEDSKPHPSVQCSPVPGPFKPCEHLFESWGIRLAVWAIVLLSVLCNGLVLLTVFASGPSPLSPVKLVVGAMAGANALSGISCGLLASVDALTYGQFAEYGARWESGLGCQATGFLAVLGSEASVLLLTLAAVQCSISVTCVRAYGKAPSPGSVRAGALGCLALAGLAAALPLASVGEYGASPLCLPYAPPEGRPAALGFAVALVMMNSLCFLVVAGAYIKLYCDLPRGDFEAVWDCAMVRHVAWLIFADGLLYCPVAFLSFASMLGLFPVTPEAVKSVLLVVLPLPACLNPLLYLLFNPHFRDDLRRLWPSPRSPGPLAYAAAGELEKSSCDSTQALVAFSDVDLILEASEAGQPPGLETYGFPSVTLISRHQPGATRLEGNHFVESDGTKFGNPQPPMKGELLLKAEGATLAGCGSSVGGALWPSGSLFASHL

[5] = target: T5, RAD-displayed Fragment 1A of human LGR5 (human); test: bio-layer interferometry (Octet), captured RAD-displayed fragment, 10 µM Fragment 1 peptide included
T5 construct: also called Frag1A
T5 sequence (O75473 22-37, looked up): GSSPRSGVLLRGCPTH

B1: α-LGR5 clone 1 (antibody, mouse IgG1, kappa, V domains shown)
VH: QVQLQQPGAELVKPGASVKLSCKASGYTFTSYWMQWVKQRPGQGLEWIGEIDPSDYYTNYNQKFKGKATLTVDTSSSTAYMQLSSLTSEDSAVYYCARSLSGYVDYWGQGTTLTVSS
VL: DIQMTQSTSSLSASLGDRVTINCRASQDIRNRLNWYQQKPDGTVKLLISYRSRLQSGVPSRFSGSGSGTEYSLTISNLEQEDIATYFCQQGNTLPPTFGGGTKLEVRR
notes: Murine monoclonal antibody from hybridoma; also called hybridoma clone 1; antibody 1
**Q.** Does B1 bind [1]?
**A.** no binding

**Q.** Does B1 bind [2]?
**A.** no binding

**Q.** Does B1 bind [3]?
**A.** no binding

**Q.** Does B1 bind [4]?
**A.** no binding

**Q.** What about the Kd [5] of the same binder?
**A.** 0.76 nM

B2: α-LGR5 clone 3 (antibody, mouse IgG1, kappa, V domains shown)
VH: QVQLQQPGAELVKPGASVKLSCKASGYTFTSYWMQWVKQRPGQGLEWIGEIDPSDSYSNYNQKFKGKATLTVDTSSSTAYMQLSSLTSEDSAVYYCARSLSGYVDYWGQGTTLTVSS
VL: DIQMTQTTSSLSASLGDRVTISCRASQDISNRLNWYQQKPDGTVKLLISYRSRLQSGVPSRFSGSGSGTDYSLTISNLEEEDIATYFCQQGNTLPPTFGGGTKLEVRR
notes: Murine monoclonal antibody from hybridoma; also called hybridoma clone 3; antibody 3
**Q.** Does B2 bind [1]?
**A.** no binding

**Q.** Does B2 bind [2]?
**A.** no binding

**Q.** Does B2 bind [3]?
**A.** no binding

**Q.** Does B2 bind [4]?
**A.** no binding

**Q.** And the Kd [5]?
**A.** 1 nM

B3: α-LGR5 clone 4 (antibody, mouse IgG2b, kappa, V domains shown)
VH: QVQLQQPGAELVKPGASVKLSCKASGYTFTDYWMQWVKQRPGQGLEWIGEIDPSDSYTNYNQKFQGKATLTVDTSSSTAYIQLSSLTSDDSAVYYCARSLSGSVDYWGQGTTLTVSS
VL: DIQMTQTTSSLSASLGDRVTISCRASQDISNRLNWYQQKPDGTVKLLISYRSRLQSGVPSRFSGSGSGTDYSLTITNLEQEDIATYFCQQGNTLPPTFGGGTKLEVRR
notes: Murine monoclonal antibody from hybridoma; also called hybridoma clone 4; antibody 4
**Q.** Does B3 bind [1]?
**A.** no binding

**Q.** Does B3 bind [2]?
**A.** no binding

**Q.** Does B3 bind [3]?
**A.** no binding

**Q.** Does B3 bind [4]?
**A.** no binding

**Q.** What about the Kd [5] of the same binder?
**A.** 1.4 nM

B4: hybridoma clone 12 (antibody, V domains shown)
VH: EVQLQQSGPELVKPGASVKISCKASGYTFTDYYMNWVKQSHGKSLEWIGDINPNNGGTIYNQKFKGKATLTVDKSSSTAYMELRSLTSEDSAVYYCASGYLFDYWGPGTTLTVSS
VL: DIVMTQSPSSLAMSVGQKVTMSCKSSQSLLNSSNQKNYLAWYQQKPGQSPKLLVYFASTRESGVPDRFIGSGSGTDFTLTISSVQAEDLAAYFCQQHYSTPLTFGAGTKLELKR
notes: Murine antibody; also called antibody 12
**Q.** Does B4 bind [1]?
**A.** no binding

**Q.** Does B4 bind [2]?
**A.** no binding

**Q.** Does B4 bind [3]?
**A.** no binding

**Q.** Does B4 bind [4]?
**A.** no binding
